Data: patent US20140348747A1

Legend:
Test in all cases: cell-based or functional assay
[1] = biological target: wild-type non-luminescent polypeptide (WT fragment of residues 1-156 of NanoLuc)
NLpep9-HT = biological target: NLpep9-HT
NLpep53-HT = biological target: NLpep53-HT

For NLpep-HT G157C, the luminescence after complementation (relative; unit not given) [1] was 0.0468.
HT-NLpep I167V showed a luminescence after complementation (relative; unit not given) [1] of 0.877.
For HT-NLpep G157D, the luminescence after complementation (relative; unit not given) [1] was 0.114.
NLpoly I56N showed a luminescence after complementation (RLU(mutant)/RLU(WT)) (NLpep9-HT) of 0.44 and a luminescence after complementation (RLU(mutant)/RLU(WT)) (NLpep53-HT) of 1.81.
With NLpoly Q32R the luminescence after complementation (RLU(mutant)/RLU(WT)) (NLpep9-HT) was 1.52 and the luminescence after complementation (RLU(mutant)/RLU(WT)) (NLpep53-HT) was 1.04.
Work on NLpep-HT A169R yielded a luminescence after complementation (relative; unit not given) [1] of 0.501.
For HT-NLpep G157H, the luminescence after complementation (relative; unit not given) [1] was 0.938.
For NLpoly N33K, the luminescence after complementation (RLU(mutant)/RLU(WT)) (NLpep9-HT) was 2.15 and the luminescence after complementation (RLU(mutant)/RLU(WT)) (NLpep53-HT) was 1.76.
HT-NLpep A169E was tested, and the luminescence after complementation (relative; unit not given) [1] was 0.846.
NLpep-HT R166K gave a luminescence after complementation (relative; unit not given) [1] of 1.21.
HT-NLpep R166K gave a luminescence after complementation (relative; unit not given) [1] of 1.09.
HT-NLpep V158Q was tested, and the luminescence after complementation (relative; unit not given) [1] was 0.0445.
In the case of NLpoly V27M, the luminescence after complementation (RLU(mutant)/RLU(WT)) (NLpep9-HT) is reported as 1.99 and the luminescence after complementation (RLU(mutant)/RLU(WT)) (NLpep53-HT) is reported as 1.7.
With HT-NLpep T159V the luminescence after complementation (relative; unit not given) [1] was 0.566.
Work on NLpep-HT T159K yielded a luminescence after complementation (relative; unit not given) [1] of 0.0307.
With HT-NLpep A169T the luminescence after complementation (relative; unit not given) [1] was 0.945.
HT-NLpep V158I showed a luminescence after complementation (relative; unit not given) [1] of 0.608.
NLpoly K75E showed a luminescence after complementation (RLU(mutant)/RLU(WT)) (NLpep9-HT) of 2.08 and a luminescence after complementation (RLU(mutant)/RLU(WT)) (NLpep53-HT) of 2.05.
NLpep-HT W161E gave a luminescence after complementation (relative; unit not given) [1] of 0.0012.
Substance HT-NLpep I167F has a luminescence after complementation (relative; unit not given) [1] of 0.283.
For HT-NLpep T159Q, the luminescence after complementation (relative; unit not given) [1] was 0.398.
Work on HT-NLpep G157N yielded a luminescence after complementation (relative; unit not given) [1] of 0.641.
NLpep-HT C164T showed a luminescence after complementation (relative; unit not given) [1] of 0.0084.
NLpoly F31I gave a luminescence after complementation (RLU(mutant)/RLU(WT)) (NLpep9-HT) of 4.1 and a luminescence after complementation (RLU(mutant)/RLU(WT)) (NLpep53-HT) of 2.83.
Work on NLpoly V58A yielded a luminescence after complementation (RLU(mutant)/RLU(WT)) (NLpep9-HT) of 1.88 and a luminescence after complementation (RLU(mutant)/RLU(WT)) (NLpep53-HT) of 1.07.
With HT-NLpep L163T the luminescence after complementation (relative; unit not given) [1] was 0.0259.
Work on NLpoly R112N yielded a luminescence after complementation (RLU(mutant)/RLU(WT)) (NLpep9-HT) of 1.61 and a luminescence after complementation (RLU(mutant)/RLU(WT)) (NLpep53-HT) of 1.45.
NLpoly F31L gave a luminescence after complementation (RLU(mutant)/RLU(WT)) (NLpep9-HT) of 3.13 and a luminescence after complementation (RLU(mutant)/RLU(WT)) (NLpep53-HT) of 2.86.
NLpoly N156S gave a luminescence after complementation (RLU(mutant)/RLU(WT)) (NLpep9-HT) of 1.04 and a luminescence after complementation (RLU(mutant)/RLU(WT)) (NLpep53-HT) of 1.4.
With NLpep-HT T159Q the luminescence after complementation (relative; unit not given) [1] was 0.031.
Work on HT-NLpep C164T yielded a luminescence after complementation (relative; unit not given) [1] of 0.0116.
NLpep-HT C164F showed a luminescence after complementation (relative; unit not given) [1] of 13.3.
NLpoly M106I gave a luminescence after complementation (RLU(mutant)/RLU(WT)) (NLpep9-HT) of 1.27 and a luminescence after complementation (RLU(mutant)/RLU(WT)) (NLpep53-HT) of 1.31.
NLpoly R11N was tested, and the luminescence after complementation (RLU(mutant)/RLU(WT)) (NLpep9-HT) was 3.37 and the luminescence after complementation (RLU(mutant)/RLU(WT)) (NLpep53-HT) was 2.09.
Work on NLpep-HT C164Q yielded a luminescence after complementation (relative; unit not given) [1] of 0.0211.
NLpep-HT C164N showed a luminescence after complementation (relative; unit not given) [1] of 0.108.
Substance HT-NLpep A169N has a luminescence after complementation (relative; unit not given) [1] of 0.911.
NLpep-HT V158A gave a luminescence after complementation (relative; unit not given) [1] of 0.144.
NLpep-HT G157N showed a luminescence after complementation (relative; unit not given) [1] of 3.31.
With NLpep-HT G157P the luminescence after complementation (relative; unit not given) [1] was 0.0543.
For HT-NLpep A169L, the luminescence after complementation (relative; unit not given) [1] was 1.11.
NLpep-HT C164K was tested, and the luminescence after complementation (relative; unit not given) [1] was 0.0005.
NLpep-HT C164L was tested, and the luminescence after complementation (relative; unit not given) [1] was 1.02.
For NLpep-HT I167V, the luminescence after complementation (relative; unit not given) [1] was 1.08.
For NLpoly Q20K, the luminescence after complementation (RLU(mutant)/RLU(WT)) (NLpep9-HT) was 4.43 and the luminescence after complementation (RLU(mutant)/RLU(WT)) (NLpep53-HT) was 2.33.
NLpep-HT L163I gave a luminescence after complementation (relative; unit not given) [1] of 0.292.
HT-NLpep I167Q was tested, and the luminescence after complementation (relative; unit not given) [1] was 0.0178.
HT-NLpep T159K was tested, and the luminescence after complementation (relative; unit not given) [1] was 0.049.
In the case of NLpoly M106V, the luminescence after complementation (RLU(mutant)/RLU(WT)) (NLpep9-HT) is reported as 1.3 and the luminescence after complementation (RLU(mutant)/RLU(WT)) (NLpep53-HT) is reported as 1.4.
NLpep-HT A169N showed a luminescence after complementation (relative; unit not given) [1] of 1.78.
With NLpep-HT C164S the luminescence after complementation (relative; unit not given) [1] was 0.0202.
NLpep-HT L163K showed a luminescence after complementation (relative; unit not given) [1] of 0.0786.
NLpep-HT L163T showed a luminescence after complementation (relative; unit not given) [1] of 0.0262.
NLpep-HT I167Q was tested, and the luminescence after complementation (relative; unit not given) [1] was 0.117.
NLpoly L149M was tested, and the luminescence after complementation (RLU(mutant)/RLU(WT)) (NLpep9-HT) was 2.89 and the luminescence after complementation (RLU(mutant)/RLU(WT)) (NLpep53-HT) was 2.16.
Substance NLpep-HT W161Y has a luminescence after complementation (relative; unit not given) [1] of 0.215.
Substance NLpoly N156D has a luminescence after complementation (RLU(mutant)/RLU(WT)) (NLpep9-HT) of 1.57 and a luminescence after complementation (RLU(mutant)/RLU(WT)) (NLpep53-HT) of 1.21.
For HT-NLpep W161K, the luminescence after complementation (relative; unit not given) [1] was 0.0002.
With NLpep-HT A169E the luminescence after complementation (relative; unit not given) [1] was 0.789.
With HT-NLpep A169R the luminescence after complementation (relative; unit not given) [1] was 0.985.
In the case of NLpep-HT V158K, the luminescence after complementation (relative; unit not given) [1] is reported as 0.192.
NLpep-HT I167R gave a luminescence after complementation (relative; unit not given) [1] of 0.0469.
Work on NLpep-HT T159V yielded a luminescence after complementation (relative; unit not given) [1] of 0.0455.
Substance HT-NLpep L163Y has a luminescence after complementation (relative; unit not given) [1] of 0.0512.
Work on NLpoly N33R yielded a luminescence after complementation (RLU(mutant)/RLU(WT)) (NLpep9-HT) of 2.1 and a luminescence after complementation (RLU(mutant)/RLU(WT)) (NLpep53-HT) of 1.56.
NLpoly T13I was tested, and the luminescence after complementation (RLU(mutant)/RLU(WT)) (NLpep9-HT) was 2.18 and the luminescence after complementation (RLU(mutant)/RLU(WT)) (NLpep53-HT) was 1.44.
Substance NLpep-HT G157E has a luminescence after complementation (relative; unit not given) [1] of 1.45.
For HT-NLpep R166N, the luminescence after complementation (relative; unit not given) [1] was 0.103.
Substance NLpep-HT I167F has a luminescence after complementation (relative; unit not given) [1] of 0.179.
Substance NLpep-HT G157S has a luminescence after complementation (relative; unit not given) [1] of 1.72.
Substance NLpep-HT V158Q has a luminescence after complementation (relative; unit not given) [1] of 0.0397.
HT-NLpep I167E was tested, and the luminescence after complementation (relative; unit not given) [1] was 0.277.
With NLpep-HT W161V the luminescence after complementation (relative; unit not given) [1] was 0.005.
Work on NLpoly G67S yielded a luminescence after complementation (RLU(mutant)/RLU(WT)) (NLpep9-HT) of 1.22 and a luminescence after complementation (RLU(mutant)/RLU(WT)) (NLpep53-HT) of 1.29.
NLpoly G67D was tested, and the luminescence after complementation (RLU(mutant)/RLU(WT)) (NLpep9-HT) was 1.78 and the luminescence after complementation (RLU(mutant)/RLU(WT)) (NLpep53-HT) was 1.57.
In the case of NLpep-HT C164A, the luminescence after complementation (relative; unit not given) [1] is reported as 0.0858.
HT-NLpep L163V showed a luminescence after complementation (relative; unit not given) [1] of 0.173.
For HT-NLpep V158K, the luminescence after complementation (relative; unit not given) [1] was 0.077.
For NLpoly I59T, the luminescence after complementation (RLU(mutant)/RLU(WT)) (NLpep9-HT) was 1.07 and the luminescence after complementation (RLU(mutant)/RLU(WT)) (NLpep53-HT) was 1.35.
In the case of HT-NLpep C164N, the luminescence after complementation (relative; unit not given) [1] is reported as 0.0874.
Work on HT-NLpep I167R yielded a luminescence after complementation (relative; unit not given) [1] of 0.0464.
For NLpep-HT W161K, the luminescence after complementation (relative; unit not given) [1] was 0.0008.
HT-NLpep G157E was tested, and the luminescence after complementation (relative; unit not given) [1] was 0.196.
Substance NLpoly L18Q has a luminescence after complementation (RLU(mutant)/RLU(WT)) (NLpep9-HT) of 3.81 and a luminescence after complementation (RLU(mutant)/RLU(WT)) (NLpep53-HT) of 2.99.
HT-NLpep W161V showed a luminescence after complementation (relative; unit not given) [1] of 0.0086.
Work on HT-NLpep W161T yielded a luminescence after complementation (relative; unit not given) [1] of 0.0028.
HT-NLpep L163K gave a luminescence after complementation (relative; unit not given) [1] of 0.0885.
HT-NLpep V158S gave a luminescence after complementation (relative; unit not given) [1] of 0.0487.
In the case of NLpep-HT L163Y, the luminescence after complementation (relative; unit not given) [1] is reported as 0.196.
With NLpep-HT C164Y the luminescence after complementation (relative; unit not given) [1] was 1.01.
With NLpep-HT I167E the luminescence after complementation (relative; unit not given) [1] was 0.244.
NLpep-HT G157H was tested, and the luminescence after complementation (relative; unit not given) [1] was 0.573.
NLpoly G15S was tested, and the luminescence after complementation (RLU(mutant)/RLU(WT)) (NLpep9-HT) was 1.98 and the luminescence after complementation (RLU(mutant)/RLU(WT)) (NLpep53-HT) was 2.34.
Substance NLpep-HT R166N has a luminescence after complementation (relative; unit not given) [1] of 0.118.
For NLpoly N144T, the luminescence after complementation (RLU(mutant)/RLU(WT)) (NLpep9-HT) was 3.69 and the luminescence after complementation (RLU(mutant)/RLU(WT)) (NLpep53-HT) was 2.26.
NLpep-HT V158I was tested, and the luminescence after complementation (relative; unit not given) [1] was 1.6.
HT-NLpep G157S showed a luminescence after complementation (relative; unit not given) [1] of 1.99.
Work on NLpoly D108N yielded a luminescence after complementation (RLU(mutant)/RLU(WT)) (NLpep9-HT) of 2.08 and a luminescence after complementation (RLU(mutant)/RLU(WT)) (NLpep53-HT) of 1.88.
For NLpep-HT V158S, the luminescence after complementation (relative; unit not given) [1] was 0.0838.
NLpep-HT C164H was tested, and the luminescence after complementation (relative; unit not given) [1] was 0.76.
Substance NLpoly F31V has a luminescence after complementation (RLU(mutant)/RLU(WT)) (NLpep9-HT) of 2.12 and a luminescence after complementation (RLU(mutant)/RLU(WT)) (NLpep53-HT) of 2.12.
Substance NLpoly V157D has a luminescence after complementation (RLU(mutant)/RLU(WT)) (NLpep9-HT) of 4.98 and a luminescence after complementation (RLU(mutant)/RLU(WT)) (NLpep53-HT) of 3.02.
For NLpep-HT A169T, the luminescence after complementation (relative; unit not given) [1] was 1.37.
Work on NLpep-HT G157D yielded a luminescence after complementation (relative; unit not given) [1] of 0.549.
NLpep-HT C164M was tested, and the luminescence after complementation (relative; unit not given) [1] was 3.26.
HT-NLpep V158A showed a luminescence after complementation (relative; unit not given) [1] of 0.135.
In the case of NLpep-HT L163V, the luminescence after complementation (relative; unit not given) [1] is reported as 0.119.
NLpep-HT W161T showed a luminescence after complementation (relative; unit not given) [1] of 0.01.
NLpep-HT W161F was tested, and the luminescence after complementation (relative; unit not given) [1] was 0.0717.
Substance NLpep-HT A169L has a luminescence after complementation (relative; unit not given) [1] of 0.905.
